The data set deals with the molecule itself. The data set can be described thus: raster image correlation spectroscopy (RICS), molecular brightness; living U3A cells after IFNγ (1 U/μl, 1 h), 37°C; nucleus; brightness as fold of cytoplasmic STAT1 WT; dimers to tetramers.

B1: STAT1-GFP T419R (natural protein, UniProt P42224 1-750, looked up)
chain: MSQWYELQQLDSKFLEQVHQLYDDSFPMEIRQYLAQWLEKQDWEHAANDVSFATIRFHDLLSQLDDQYSRFSLENNFLLQHNIRKSKRNLQDNFQEDPIQMSMIIYSCLKEERKILENAQRFNQAQSGNIQSTVMLDKQKELDSKVRNVKDKVMCIEHEIKSLEDLQDEYDFKCKTLQNREHETNGVAKSDQKQEQLLLKKMYLMLDNKRKEVVHKIIELLNVTELTQNALINDELVEWKRRQQSACIGGPPNACLDQLQNWFTIVAESLQQVRQQLKKLEELEQKYTYEHDPITKNKQVLWDRTFSLFQQLIQSSFVVERQPCMPTHPQRPLVLKTGVQFTVKLRLLVKLQELNYNLKVKVLFDKDVNERNTVKGFRKFNILGTHTKVMNMEESTNGSLAAEFRHLQLKEQKNAGTRRNEGPLIVTEELHSLSFETQLCQPGLVIDLETTSLPVVVISNVSQLPSGWASILWYNMLVAEPRNLSFFLTPPCARWAQLSEVLSWQFSSVTKRGLNVDQLNMLGEKLLGPNASPDGLIPWTRFCKENINDKNFPFWLWIESILELIKKHLLPLWNDGCIMGFISKERERALLKDQQPGTFLLRFSESSREGAITFTWVERSQNGGEPDFHAVEPYTKKELSAVTFPDIIRNYKVMAAENIPENPLKYLYPNIDKDHAFGKYYSRPKEAPEPMELDGPKGTGYIKTELISVSEVHPSRLQTTDNLLPMSPEEFDEVSRIVGSVEFDSMMNTV
notes: Mutation reported in patients; also called STAT1T419R-eGFP; source: measured in living cells; not shown: eGFP, C-terminal, kept
On to B1, for which the “stoichiometry N” value was determined as 2.
